PMC5291005, “Listeria monocytogenes 10403S Arginine Repressor ArgR Finely Tunes Arginine Metabolism Regulation under Acidic Conditions” (Frontiers in Microbiology, 2017)
Several values for one entry are separate records, joined by “and”; a condition that tells them apart may be missing. Equal values may be shown once.

Target: the molecule itself
Experiment: cross-linking; purified N-terminal His6-ArgR cross-linked with various amounts of glutaraldehyde (multimers at 0.05%) in 50 mM HEPES pH 8.0, 150 mM KCl, 1 mM L-arginine, with or without 1% beta-mercaptoethanol, room temperature, 2 h; 10% SDS-PAGE, Coomassie staining

B1: Listeria monocytogenes 10403S arginine repressor ArgR (natural protein, UniProt B8DFW1 1-149, looked up)
chain: MNKGHRHIIIRELITSNEIDTQEDLVELLLERDVKVTQATVSRDIKELHLVKVPTQTGGYKYSLPADNSFNPHQKLKRALIDCFIGIDNVQFMIILKVMPGNGNSVGALIDNLDWPEKAGTICGDDTCLIICRSEENAKTLTDRFIDML
notes: ArgR, arginine repressor of the ArgR/AhrC family, Listeria monocytogenes strain 10403S; full-length ORF amplified from the 10403S genome; the his-tagged protein runs at about 23 kDa; also called recombinant ArgR; his-tagged ArgR protein; not shown: His6, N-terminal, kept
In the case of B1, the “stoichiometry N” value is reported as 3 and 6.
